Molecular target: DPP9, short isoform (DPP9S), co-expressed with CARD8 for cryo-EM, Q86TI2
Test: cryo-EM structure
Conditions: remark: other sources report otherwise

B1: DPP9, short isoform (DPP9S), co-expressed with CARD8 for cryo-EM, Q86TI2-1 1-863 (enzyme)
chain: MATTGTPTADRGDAAATDDPAARFQVQKHSWDGLRSIIHGSRKYSGLIVNKAPHDFQFVQKTDESGPHSHRLYYLGMPYGSRENSLLYSEIPKKVRKEALLLLSWKQMLDHFQATPHHGVYSREEELLRERKRLGVFGITSYDFHSESGLFLFQASNSLFHCRDGGKNGFMVSPMKPLEIKTQCSGPRMDPKICPADPAFFSFINNSDLWVANIETGEERRLTFCHQGLSNVLDDPKSAGVATFVIQEEFDRFTGYWWCPTASWEGSEGLKTLRILYEEVDESEVEVIHVPSPALEERKTDSYRYPRTGSKNPKIALKLAEFQTDSQGKIVSTQEKELVQPFSSLFPKVEYIARAGWTRDGKYAWAMFLDRPQQWLQLVLLPPALFIPSTENEEQRLASARAVPRNVQPYVVYEEVTNVWINVHDIFYPFPQSEGEDELCFLRANECKTGFCHLYKVTAVLKSQGYDWSEPFSPGEDEFKCPIKEEIALTSGEWEVLARHGSKIWVNEETKLVYFQGTKDTPLEHHLYVVSYEAAGEIVRLTTPGFSHSCSMSQNFDMFVSHYSSVSTPPCVHVYKLSGPDDDPLHKQPRFWASMMEAASCPPDYVPPEIFHFHTRSDVRLYGMIYKPHALQPGKKHPTVLFVYGGPQVQLVNNSFKGIKYLRLNTLASLGYAVVVIDGRGSCQRGLRFEGALKNQMGQVEIEDQVEGLQFVAEKYGFIDLSRVAIHGWSYGGFLSLMGLIHKPQVFKVAIAGAPVTVWMAYDTGYTERYMDVPENNQHGYEAGSVALHVEKLPNEPNRLLILHGFLDENVHFFHTNFLVSQLIRAGKPYQLQIYPNERHSIRCPESGEHYEVTLLHFLQEYL
Binder B1 has a stoichiometry N of 2.
